Patent US20230201308A1, “TREATMENT OF CORONAVIRUS INFECTION WITH […]” (Eiger Biopharmaceuticals, Inc., priority 2020, published 2023)
Where two headings read alike, the source gives them in different places.

Test system: SARS-CoV-2
[1] = Treated within 5 days of symptom onset, n=800 vs placebo 879
[2] = Unvaccinated population, n=143 vs placebo 176
[3] = final, treatment ≤3 days of symptom onset
[4] = high-risk patients, pooled Brazil+Toronto
[5] = intention-to-treat, N = 931 vs placebo N = 1018
[6] = treatment within 3 days of symptom onset
[7] = unvaccinated patients, treatment within 3 days of symptoms
[8] = ≤3 days of symptoms before treatment, preliminary

B1: pegylated interferon lambda-1a (protein)
chain: MKPTTTGKGCHIGRFKSLSPQELASFKKARDALEESLKLKNWSCSSPVFPGNWDLRLLQVRERPVALEAELALTLKVLEAAAGPALEDVLDQPLHTLHHILSQLQACIQPQPTAGPRPRGRLHHWLHRLQEAPKKESAGCLEASVTFNLFRLLTRDLKYVADGNLSLRTSTHPEST
modifications: PEG
notes: 180 mcg subcutaneous injection
Q: Which results are given for B1?
A: Hospitalization or ER (any duration) for COVID-19, RR (95% CrI) vs placebo [1]: 0.73 (0.56, 0.94); Hospitalization or ER ≥6 h for COVID-19, % of patients [1]: (2.5%); Hospitalization or ER ≥6 h for COVID-19, Pr (Superiority) [1]: 1.000; Hospitalization or ER ≥6 h for COVID-19, RR (95% CrI) vs placebo [1]: 0.45 (0.26, 0.72); Death due to COVID-19, % of patients [2]: 0 (0%); Death due to COVID-19, RR (95% CrI) vs placebo [2]: 0.51 (0.02, 6.47); Death or hospitalization due to COVID-19, % of patients [2]: 4.2%; Death or hospitalization due to COVID-19, RR (95% CrI) vs placebo [2]: 0.49 (0.19, 1.12); Hospitalization for COVID-19, % of patients [2]: 4.2%; Hospitalization for COVID-19, RR (95% CrI) vs placebo [2]: 0.49 (0.19, 1.12); Hospitalization or ER (any duration) for COVID-19, % of patients [2]: 16.1%; Hospitalization or ER (any duration) for COVID-19, Pr (Superiority) [2]: 0.806; Hospitalization or ER (any duration) for COVID-19, RR (95% CrI) vs placebo [2]: 0.82 (0.50, 1.29); Hospitalization or ER ≥6 h for COVID-19, % of patients [2]: 4.2%; Hospitalization or ER ≥6 h for COVID-19, Pr (Superiority) [2]: 0.967; Hospitalization or ER ≥6 h for COVID-19, RR (95% CrI) vs placebo [2]: 0.46 (0.18, 1.05); deaths in the arm (early treated patients): no deaths; COVID-19 deaths in the treatment arm (final ITT): one; Hazard ratio, COVID-19-related hospitalization or death (all-cause death) (final ITT): 0.59; hazard ratio, COVID-19 death (final ITT): 0.22; hazard ratio, risk of hospitalization (final ITT): 0.57; relative risk, COVID-19-related hospitalization alone (final ITT): 0.57; risk reduction, COVID-19-related hospitalization or all-cause death (final ITT): 41%; relative risk, primary outcome (final ITT, 931 vs placebo 1018): 0.49; participants experiencing a primary outcome event, % (final ITT, n=931): 2.7%; participants experiencing a primary outcome event, count (final ITT, n=931): 25 of 931; absolute risk reduction (with 95% Bayesian credible intervals) plotted, FIG. 14 (final ITT, patients receiving peginterferon lambda): 0.028 (0.018, 0.039); relative risk, primary outcome (final, treatment within 3 days of symptom onset): 0.42; Hazard ratio, COVID-19-related hospitalization or death [3]: 0.35; risk reduction, COVID-19-related hospitalization or death [3]: 65%; RR, All-cause mortality or Hospitalization (high-risk patients, Brazil): 0.69; RR, Death or Hospitalization due to COVID-19 (high-risk patients, Brazil): 0.63; RR, Hospitalization or ER visit>6 hours (high-risk patients, Brazil): 0.49; probability of superiority (Pr), Hospitalization or ER visit>6 hours (high-risk patients, Brazil): 0.990; Pr, Hospitalization or ER visit>6 hours [4]: 0.990; RR, All-cause mortality or Hospitalization [4]: 0.69; RR, Death or Hospitalization due to COVID-19 [4]: 0.63; RR, Hospitalization or ER visit>6 hours [4]: 0.49; participants with primary outcome event, count (human, in vivo): 23/929; relative risk, primary outcome (human, in vivo): 0.47; Days on mechanical ventilation: mean (intention-to-treat, N = 931): 10.2 days; Death due to COVID-19: percentage of patients (intention-to-treat, N = 931): (0.1%); Death due to COVID-19: total (no. of patients) (intention-to-treat, N = 931): 1; Death or hospitalization due to COVID-19: percentage of patients (intention-to-treat, N = 931): (2.4%); Death or hospitalization due to COVID-19: total (no. of patients) (intention-to-treat, N = 931): 22; Hospitalization for COVID-19: percentage of patients (intention-to-treat, N = 931): (2.3%); Hospitalization for COVID-19: total (no. of patients) (intention-to-treat, N = 931): 21; Hospitalization or ER (any duration) for COVID-19: percentage of patients (intention-to-treat, N = 931): (10.6%); Hospitalization or ER (any duration) for COVID-19: total (no. of patients) (intention-to-treat, N = 931): 99; Hospitalization or ER visit >6 h for COVID-19: percentage of patients (intention-to-treat, N = 931): (2.7%); Hospitalization or ER visit >6 h for COVID-19: total (no. of patients) (intention-to-treat, N = 931): 25; Days on mechanical ventilation: MD (95% CrI), estimated treatment effect [5]: −4.47 (−6.89, 3.09); Days on mechanical ventilation: Probability of Superiority (MD) [5]: 90.5; Days to death for COVID-19: HR (95% CI), estimated treatment effect [5]: 0.22 (0.01, 1.64); Days to death for COVID-19: Probability of Superiority (HR) [5]: 90.7; Days to death or hospitalization due to COVID-19: HR (95% CrI), estimated treatment effect [5]: 0.59 (0.35, 0.97); Days to death or hospitalization due to COVID-19: Probability of Superiority (HR) [5]: 98.1; Days to hospitalization for COVID-19: HR (95% CrI), estimated treatment effect [5]: 0.57 (0.33, 0.95); Days to hospitalization for COVID-19: Probability of Superiority (HR) [5]: 98.5; Days to hospitalization or ER visit >6 h for COVID-19: HR (95% CrI), estimated treatment effect [5]: 0.47 (0.29, 0.73); Days to hospitalization or ER visit >6 h for COVID-19: Probability of Superiority (HR) [5]: >99.9; Death due to COVID-19: Probability of Superiority (RR) [5]: 86.9; Death due to COVID-19: RR (95% CrI), estimated treatment effect [5]: 0.39 (0.05, 1.95); Death or hospitalization due to COVID-19: Probability of Superiority (RR) [5]: 97.7; Death or hospitalization due to COVID-19: RR (95% CrI), estimated treatment effect [5]: 0.61 (0.36, 0.99); Hospitalization for COVID-19: Probability of Superiority (RR) [5]: 98.3; Hospitalization for COVID-19: RR (95% CrI), estimated treatment effect [5]: 0.58 (0.34, 0.96); Hospitalization or ER (any duration) for COVID-19: Probability of Superiority (RR) [5]: 98.1; Hospitalization or ER (any duration) for COVID-19: RR (95% CrI), estimated treatment effect [5]: 0.78 (0.61, 0.99); Hospitalization or ER visit >6 h for COVID-19: Probability of Superiority (RR) [5]: >99.9; Hospitalization or ER visit >6 h for COVID-19: RR (95% CrI), estimated treatment effect [5]: 0.49 (0.30, 0.76); relative risk, primary outcome (per protocol analysis (25/931 vs 43/825)): 0.52; fewer COVID-19-related deaths than placebo (preliminary ITT): 75%; hazard ratio, COVID-19-related hospitalization [6]: 0.35; relative risk, all-cause death [6]: 0.19; risk reduction in all-cause death [6]: 81%; risk reduction of COVID-19-related hospitalization [6]: 65%; Hazard ratio vs. placebo [7]: 0.11; risk (hazard) reduction, COVID-19-related hospitalization or death [7]: 89%; Risk Reduction (95% BCI), Hospitalizations or Deaths [8]: 60% (17-82%); Risk Reduction (95% BCI), Hospitalizations or ER visits [8]: 67% (19-79%); Risk Reduction (95% BCI), Hospitalizations or Deaths (≤7 days of symptoms before treatment, preliminary): 39% (1-64%)
